B1: S100A9 (calgranulin B) (natural protein)
chain: TCKMSQLERNIETIINTFHQYSVKLGHPDTLNQGEFKELVRKDLQNFLKKENKNEKVIEHIMEDLDTNADKQLSFEEFIMLMARLTWASHEKMHEGDEGPGHHHKPGLGEGTP
notes: S100A9 (calgranulin B); construct His6-SUMO-S100A9 in pET28a, tag removed by SENP1; also called S100A9 subunit of calprotectin (CP); source: E. coli BL21(DE3), purified (Ni2+ Sepharose, SENP1 cleavage of His6-SUMO, second Ni2+ column, Superdex 75 SEC); not shown: His6, N-terminal, cleaved; SUMO, N-terminal, cleaved

Data set [1] concerns the molecule itself. In words: dynamic light scattering; 100 uM S100A8, 100 uM S100A9, 50 uM CP; 50 mM HEPES pH 7.4; 8 °C; hydrodynamic radius compared with published radii of S100 dimers.
The target of the data set “S100A9 (calgranulin B)” is B1. In words: SEC; Tricorn 10/300 column with Superdex 75 prep grade, 50 mM HEPES pH 7.4, 1 mM EDTA, 1 mM TCEP, no calcium; CP formed from an equimolar mix of S100A8 and S100A9 by acid denaturation (pH 2.0-2.5), stepwise dialysis and anion exchange. The settings on record: both partners purified.

Turning to B1, the binding result in data set [1] is “binds”.

B2: S100A8 (calgranulin A) (natural protein)
chain: MLTELEKALNSIIDVYHKYSLIKGNFHAVYRDDLKKLLETECPQYIRKKGADVWFKELDINTDGAVNFQEFLILVIKMGVAAHKKSHEESHKE
notes: S100A8 (calgranulin A); construct His6-SUMO-S100A8 in pET28a, tag removed by SENP1; also called S100A8 subunit of calprotectin (CP); source: E. coli BL21(DE3), purified (Ni2+ Sepharose, SENP1 cleavage of His6-SUMO, second Ni2+ column, Superdex 75 SEC); not shown: His6, N-terminal, cleaved; SUMO, N-terminal, cleaved
In the case of B2, the binding result (in the data set with S100A9 (calgranulin B); in data set [1]) was “binds” throughout.

Source of the values: PMC11066842, “Formation of Calprotectin Inhibits Amyloid Aggregation of S100A8 and S100A9 Proteins” (ACS Chemical Neuroscience, 2024).
